In article PMC2976697 one finds stoichiometry N data, which are given here for one substance.

For this assay, the target named is Helicobacter pylori CCUG 17874 L-asparaginase (Helicobacter pylori CCUG 17874) (UniProt O25424). Briefly: non-reducing SDS-PAGE with LC-MS/MS of the band; active Superdex 75 fractions of BCF, mixed with non-reducing SDS buffer, 10-12% SDS-PAGE; band at about 121 kDa cut out, trypsin digested and identified by LC-MS/MS.

As usually defined, the stoichiometry N is the number of molecules, sites or subunits per partner or assembly.

With “Helicobacter pylori CCUG 17874 L-asparaginase (from UniProt O25424 1-330) (enzyme)”, the stoichiometry N worked out at 4.
